Measurements published in patent US20250282887A1 (Amgen, published 2025).

T1: human MAGEB18 (human, UniProt Q96M61 1-343)
T1 construct: whole, on cells; FFPE cell pellets; also called MAGE-18
T1 sequence (looked up): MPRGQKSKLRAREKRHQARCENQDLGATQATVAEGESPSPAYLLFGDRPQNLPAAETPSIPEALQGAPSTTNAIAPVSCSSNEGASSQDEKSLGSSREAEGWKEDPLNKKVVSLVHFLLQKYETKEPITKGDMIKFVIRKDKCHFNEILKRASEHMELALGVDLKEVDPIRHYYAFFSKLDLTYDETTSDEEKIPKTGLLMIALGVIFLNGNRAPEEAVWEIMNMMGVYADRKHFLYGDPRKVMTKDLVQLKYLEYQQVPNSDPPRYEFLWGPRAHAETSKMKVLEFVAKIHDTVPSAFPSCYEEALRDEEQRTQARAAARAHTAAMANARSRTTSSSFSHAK

T2: human MAGEA1 (human, UniProt P43355 1-309)
T2 construct: whole, on cells; FFPE cell pellets
T2 sequence (looked up): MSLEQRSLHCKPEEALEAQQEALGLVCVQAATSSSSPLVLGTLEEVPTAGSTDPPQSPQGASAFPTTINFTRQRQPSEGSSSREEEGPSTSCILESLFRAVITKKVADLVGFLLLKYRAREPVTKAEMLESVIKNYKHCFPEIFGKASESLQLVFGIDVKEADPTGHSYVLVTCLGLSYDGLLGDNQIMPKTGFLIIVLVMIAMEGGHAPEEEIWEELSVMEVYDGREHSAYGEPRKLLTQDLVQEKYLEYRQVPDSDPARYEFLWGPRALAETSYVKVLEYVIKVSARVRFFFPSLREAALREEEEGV


How the values were obtained:
human MAGEA2 = target: T3, human MAGEA2 (human, UniProt P43356 1-314); experiment: IHC, FFPE CHO cells transfected with human MAGEA2
T3 construct: whole, on cells; FFPE cell pellets
T3 sequence (P43356 whole entry): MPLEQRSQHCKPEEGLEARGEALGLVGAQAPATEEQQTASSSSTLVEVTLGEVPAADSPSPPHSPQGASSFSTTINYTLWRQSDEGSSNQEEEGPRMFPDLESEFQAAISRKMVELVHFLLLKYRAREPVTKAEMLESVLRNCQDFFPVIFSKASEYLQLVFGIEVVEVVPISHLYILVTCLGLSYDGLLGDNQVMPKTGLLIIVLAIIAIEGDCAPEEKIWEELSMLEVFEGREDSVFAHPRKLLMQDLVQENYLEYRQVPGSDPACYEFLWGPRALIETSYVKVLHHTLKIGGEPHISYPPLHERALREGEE
Description: (§1) FFPE samples were sectioned at 4 μm and mounted on positive charged glass slides. After mounting, paraffin sections were air-dried at room temperature. FFPE TMA samples were received as freshly sectioned and mounted on glass slides. The fully automated IHC assay was performed on a Discovery Ultra Stainer (Ventana Medical Systems, Tucson, AZ) using Ventana Anti-Rabbit HQ (cat #760-4815), Ventana Anti-HQ HRP (cat #760-4820), and Ventana Antibody Diluent with Casein (cat #760-219) (Ventana Medical Systems, Tucson, AZ). The slides were baked on the Discovery Ultra Stainer at 60° C. for 8 minutes, de-paraffinized with Ventana Discovery wash (cat #950-510) for 3 cycles (8 minutes each) at 69° C., and underwent cell conditioning (target retrieval) at 95° C. for 16 minutes (for cell arrays) or 32 minutes (tissues or TMAs) in CC1 buffer (cat #950-500). Following this, slides were incubated with Background Sniper (cat #BS966M, Biocare Medical, Pacheco, CA) in a Ventana Option Prep kit (cat #771-751) for 28 minutes, incubated with CM inhibitor (a part of the Ventana DAB kit cat #760-159) for 12 minutes, and incubated for 1 h at RT with MAGE-B2 antibody diluted with Ventana diluent with Casein in a Ventana Prep kit (cat #770-001) (working concentration at 0.1 μg/ml for cell pellet, or 1-5 ug/ml for tissues) or with a matched concentration of isotype control Rabbit IgG1 antibody. Following this, slides were incubated with the Ventana Anti-Rabbit HQ (cat #760-4815) for 28 minutes at RT, Ventana Anti-HQ HRP (cat #760-4820) for 28 minutes at RT, and signals detected with Ventana DAB chromogen kit (cat #760-159) for 5 minutes at RT. Slides were counterstained with Ventana Hematoxylin II (cat #5266726001) for 8 minutes and Ventana Bluing reagent (cat #526676900) for 4 minutes. Slides were coverslipped and digitized using an Aperio AT2 scanner (Leica Biosystems Inc, Buffalo Grove, IL).

human MAGEB18 = target: T1, human MAGEB18; experiment: IHC, FFPE CHO cells transfected with human MAGEB18
Description: as §1

human MAGEA1 = target: T2, human MAGEA1; experiment: IHC, FFPE CHO cells transfected with human MAGEA1
Description: as §1

| binding result (human MAGEA2) | binding result (human MAGEB18) | binding result (human MAGEA1) | Binder |
| --- | --- | --- | --- |
| no binding (tested: 0.1 µg/ml) | no binding (tested: 0.1 µg/ml) | no binding (tested: 0.1 µg/ml) | 1I14 (antibody, V domains shown, also called MAGE-B2 (1i14)) VH: QSVEESGGRLVTPGTPLTLTCTISGFSLSSYAMSWVRQAPGKGLEWIGSIGGGGSAVYASWAKGRFTISKTSTTVDLRITSPTTEDTAMYFCGRGFYSIDLWGPGTLVTVSS VL: DVVMTQTPASVEATVGGTVTIKCQSSQSVYDNNALAWYQQNAGQRPRLLIYGASTLASGVPSRFSASGSGTEFTLTISDLECADAATYYCQCTYYVSSYQNDFGGGTEVVVKG |
| no binding (tested: 0.1 µg/ml) | no binding (tested: 0.1 µg/ml) | no binding (tested: 0.1 µg/ml) | 1C3 (antibody, V domains shown, also called MAGE-B2 (IC3); anti-MAGEB2 antibody 1C3) VH: QSLEESGGGLVQPEGSLTLTCTAFGVTLTNYYICWVRQAPGKGLEWVGCIDNANGRTYYASWAKGRFTISKTSSTTGTLQMTSLTAADTATYFCARSLATPLWGPGTLVTVSS VL: DIVMTQTPSSVEAAVGGTVTIKCQASQNISSYLAWYQQKPGQPPKLLIYRASTLASGVPSRFKGSGSGTQFTLTISDLECADAATYYCQSYDDSRSSNFFYAFGGGTEVVVKG |
| no binding (tested: 0.1 µg/ml) | no binding (tested: 0.1 µg/ml) | no binding (tested: 0.1 µg/ml) | 4G17 (antibody, IgG1, V domains shown, Rabbit monoclonal IgG1; Tested as supernatant and as small batch purified antibody; also called MAGE-B2 (4G17); anti-MAGEB2 antibody 4G17) VH: QSLEESGGGLVQPEGSLTLTCTASGVTLSNYYICWVRQAPGKGLEWIGCIDNVNGRTYYASWAKGRFTISKTSSTTGTLQMTSLTAADTATYFCARSLATPLWGPGTLVTVSS VL: DIVMTQTPASVEAAVGGTVTIKCQASQNIDSYLAWYQQKPGQPPKLLIYRASTLASGVPSRFKGSGSGTEFTLTISDLECADAATYYCQSYDDSRSSSFFYGFGGGTEVVVK |
| no binding (tested: 0.1 µg/ml) | no binding (tested: 0.1 µg/ml) | no binding (tested: 0.1 µg/ml) | 1J15 (antibody, IgG1, V domains shown, Rabbit monoclonal IgG1; Tested as supernatant and as small batch purified antibody; also called MAGE-B2 (IJ15); anti-MAGEB2 antibody 1J15) VH: QSLEESGGGLVQPEGSLTLTCTAFGFTLNNYYICWVRQAPGKGLEWIACIDNANGRTYYASWAKGRFTISKTSSTTVTLQMTSLTAADTATYFCARSLSTPLWGPGTLVTVSS VL: DIVMTQTPASVEAAVGGTVTIKCQASQSISSYLSWYQQKPGQPPKLLIYRASTLASGVPSRFRGSGSGTQFTLTISDLECADAATYYCQSYDDSSDNNFFYGFGGGTEVVVR |
